Consider four molecules from article PMC4299599, “Quantification of cytosolic interactions identifies Ede1 oligomers as key organizers of endocytosis” (Molecular Systems Biology, 2014).

Data set [1] deals with the molecule itself. The data set is described as follows: fluorescence cross-correlation spectroscopy (FCCS); in the cytoplasm of living yeast cells; first-named protein green (3myeGFP or 1myeGFP; eGFP for Don1), second red (3mCherry); self-interaction in diploid strains with one allele of each colour; apparent or effective KD (Kdeff) from single-cell measurements; only Kdeff values < 1000 nM are shown; values for self-interactions are upper limits.

Another data set deals with T1, Pan1 (S. cerevisiae, UniProt P32521 1-1480).
T1 construct: Pan1, S. cerevisiae; also called Pan1-1myeGFP; Pan1-3mCherry; source: chromosomally tagged at the endogenous locus, in the cytoplasm of living S. cerevisiae cells
T1 sequence (looked up): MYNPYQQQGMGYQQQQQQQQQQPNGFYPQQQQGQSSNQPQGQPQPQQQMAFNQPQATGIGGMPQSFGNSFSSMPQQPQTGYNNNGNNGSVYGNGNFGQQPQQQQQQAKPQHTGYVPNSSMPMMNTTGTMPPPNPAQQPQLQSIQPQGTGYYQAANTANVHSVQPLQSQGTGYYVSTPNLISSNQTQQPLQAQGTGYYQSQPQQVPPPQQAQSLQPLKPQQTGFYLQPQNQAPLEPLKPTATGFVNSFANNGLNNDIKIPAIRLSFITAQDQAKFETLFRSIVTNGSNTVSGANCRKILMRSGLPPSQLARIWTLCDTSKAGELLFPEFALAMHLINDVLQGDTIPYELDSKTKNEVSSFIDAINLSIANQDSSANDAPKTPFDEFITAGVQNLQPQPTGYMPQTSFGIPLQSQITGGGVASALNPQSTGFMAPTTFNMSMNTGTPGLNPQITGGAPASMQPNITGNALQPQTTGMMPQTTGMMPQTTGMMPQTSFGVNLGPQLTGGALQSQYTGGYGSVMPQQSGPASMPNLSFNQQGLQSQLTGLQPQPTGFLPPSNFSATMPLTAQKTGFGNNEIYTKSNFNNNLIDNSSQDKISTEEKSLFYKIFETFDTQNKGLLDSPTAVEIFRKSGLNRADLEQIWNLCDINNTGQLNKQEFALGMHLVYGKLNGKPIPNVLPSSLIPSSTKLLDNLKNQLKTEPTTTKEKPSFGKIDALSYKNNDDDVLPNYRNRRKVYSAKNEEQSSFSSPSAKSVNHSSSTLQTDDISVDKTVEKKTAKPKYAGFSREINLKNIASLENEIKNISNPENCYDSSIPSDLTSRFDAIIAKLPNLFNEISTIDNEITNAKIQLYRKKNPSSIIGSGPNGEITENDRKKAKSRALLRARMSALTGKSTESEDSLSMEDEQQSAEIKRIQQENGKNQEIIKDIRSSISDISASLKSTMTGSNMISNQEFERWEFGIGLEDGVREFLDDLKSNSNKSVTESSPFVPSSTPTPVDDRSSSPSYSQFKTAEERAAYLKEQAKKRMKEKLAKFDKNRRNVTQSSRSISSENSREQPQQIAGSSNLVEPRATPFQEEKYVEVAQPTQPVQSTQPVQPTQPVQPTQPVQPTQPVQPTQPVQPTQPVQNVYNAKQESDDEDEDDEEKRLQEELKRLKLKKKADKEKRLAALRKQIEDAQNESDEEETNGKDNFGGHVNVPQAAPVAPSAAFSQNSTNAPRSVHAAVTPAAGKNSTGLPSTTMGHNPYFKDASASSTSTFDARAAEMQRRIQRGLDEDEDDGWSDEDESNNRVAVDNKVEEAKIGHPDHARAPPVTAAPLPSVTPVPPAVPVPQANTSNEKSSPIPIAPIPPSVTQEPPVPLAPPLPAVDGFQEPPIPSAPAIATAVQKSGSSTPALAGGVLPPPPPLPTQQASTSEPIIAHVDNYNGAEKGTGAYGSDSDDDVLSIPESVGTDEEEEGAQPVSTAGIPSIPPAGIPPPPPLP
The description is as above. Conditions: partners not purified.

Data set [2] concerns the molecule itself. Briefly: FCS molecular brightness (counts per particle per second); living yeast cells, cytoplasm; brightness of GFP-tagged particles compared with 3myeGFP and Ent2-3myeGFP (monomers) or with wild-type Ede1; average of all particles.
Data set [3] deals with the molecule itself. The data set is described as follows: fluorescence cross-correlation spectroscopy (FCCS); self-interaction: living diploid yeast cells with one allele fused to (3)myeGFP and one to (3)mCherry, cytoplasm; apparent (effective) KD, to be taken as the upper limit since complexes of one colour are not seen.

B1: Sla2 (natural protein, S. cerevisiae, UniProt P33338 1-968, looked up)
chain: MSRIDSDLQKALKKACSVEETAPKRKHVRACIVYTWDHQSSKAVFTTLKTLPLANDEVQLFKMLIVLHKIIQEGHPSALAEAIRDRDWIRSLGRVHSGGSSYSKLIREYVRYLVLKLDFHAHHRGFNNGTFEYEEYVSLVSVSDPDEGYETILDLMSLQDSLDEFSQIIFASIQSERRNTECKISALIPLIAESYGIYKFITSMLRAMHRQLNDAEGDAALQPLKERYELQHARLFEFYADCSSVKYLTTLVTIPKLPVDAPDVFLINDVDESKEIKFKKREPSVTPARTPARTPTPTPPVVAEPAISPRPVSQRTTSTPTGYLQTMPTGATTGMMIPTATGAANAIFPQATAQMQPDFWANQQAQFANEQNRLEQERVQQLQQQQAQQELFQQQLQKAQQDMMNMQLQQQNQHQNDLIALTNQYEKDQALLQQYDQRVQQLESEITTMDSTASKQLANKDEQLTALQDQLDVWERKYESLAKLYSQLRQEHLNLLPRFKKLQLKVNSAQESIQKKEQLEHKLKQKDLQMAELVKDRDRARLELERSINNAEADSAAATAAAETMTQDKMNPILDAILESGINTIQESVYNLDSPLSWSGPLTPPTFLLSLLESTSENATEFATSFNNLIVDGLAHGDQTEVIHCVSDFSTSMATLVTNSKAYAVTTLPQEQSDQILTLVKRCAREAQYFFEDLMSENLNQVGDEEKTDIVINANVDMQEKLQELSLAIEPLLNIQSVKSNKETNPHSELVATADKIVKSSEHLRVDVPKPLLSLALMIIDAVVALVKAAIQCQNEIATTTSIPLNQFYLKNSRWTEGLISAAKAVAGATNVLITTASKLITSEDNENTSPEQFIVASKEVAASTIQLVAASRVKTSIHSKAQDKLEHCSKDVTDACRSLGNHVMGMIEDDHSTSQQQQPLDFTSEHTLKTAEMEQQVEILKLEQSLSNARKRLGEIRRHAYYNQDDD
notes: Sla2, S. cerevisiae; also called Sla2-3myeGFP; Sla2-3mCherry; source: chromosomally tagged at the endogenous locus, in the cytoplasm of living S. cerevisiae cells
With B1, the Kd was determined as 133 nM in data set [1] and 539 nM in the data set with Pan1.

B2: Bbc1 (natural protein, S. cerevisiae, UniProt P47068 1-1157, looked up)
chain: MSEPEVPFKVVAQFPYKSDYEDDLNFEKDQEIIVTSVEDAEWYFGEYQDSNGDVIEGIFPKSFVAVQGSEVGKEAESSPNTGSTEQRTIQPEVEQKDLPEPISPETKKETLSGPVPVPAATVPVPAATVPVPAATAVSAQVQHDSSSGNGERKVPMDSPKLKARLSMFNQDITEQVPLPKSTHLDLENIPVKKTIVADAPKYYVPPGIPTNDTSNLERKKSLKENEKKIVPEPINRAQVESGRIETENDQLKKDLPQMSLKERIALLQEQQRLQAAREEELLRKKAKLEQEHERSAVNKNEPYTETEEAEENEKTEPKPEFTPETEHNEEPQMELLAHKEITKTSREADEGTNDIEKEQFLDEYTKENQKVEESQADEARGENVAEESEIGYGHEDREGDNDEEKEEEDSEENRRAALRERMAKLSGASRFGAPVGFNPFGMASGVGNKPSEEPKKKQHKEKEEEEPEQLQELPRAIPVMPFVDPSSNPFFRKSNLSEKNQPTETKTLDPHATTEHEQKQEHGTHAYHNLAAVDNAHPEYSDHDSDEDTDDHEFEDANDGLRKHSMVEQAFQIGNNESENVNSGEKIYPQEPPISHRTAEVSHDIENSSQNTTGNVLPVSSPQTRVARNGSINSLTKSISGENRRKSINEYHDTVSTNSSALTETAQDISMAAPAAPVLSKVSHPEDKVPPHPVPSAPSAPPVPSAPSVPSAPPVPPAPPALSAPSVPPVPPVPPVSSAPPALSAPSIPPVPPTPPAPPAPPAPLALPKHNEVEEHVKSSAPLPPVSEEYHPMPNTAPPLPRAPPVPPATFEFDSEPTATHSHTAPSPPPHQNVTASTPSMMSTQQRVPTSVLSGAEKESRTLPPHVPSLTNRPVDSFHESDTTPKVASIRRSTTHDVGEISNNVKIEFNAQERWWINKSAPPAISNLKLNFLMEIDDHFISKRLHQKWVVRDFYFLFENYSQLRFSLTFNSTSPEKTVTTLQERFPSPVETQSARILDEYAQRFNAKVVEKSHSLINSHIGAKNFVSQIVSEFKDEVIQPIGARTFGATILSYKPEEGIEQLMKSLQKIKPGDILVIRKAKFEAHKKIGKNEIINVGMDSAAPYSSVVTDYDFTKNKFRVIENHEGKIIQNSYKLSHMKSGKLKVFRIVARGYVGW
notes: Bbc1, S. cerevisiae; also called Bbc1-3myeGFP; Bbc1-3mCherry; source: chromosomally tagged at the endogenous locus, in the cytoplasm of living S. cerevisiae cells
As to B2, the Kd in data set [1] amounted to 115 nM.

B3: Ede1 (Ede1-3myeGFP / Ede1-3mCherry) (natural protein, S. cerevisiae, UniProt P34216 1-1381, looked up)
chain: MASITFRTPLSSQEQAFYNQKFHQLDTEDLGVVTGEAVRPLFASSGLPGQLLSQVWATVDIDNKGFLNLNEFSAALRMIAQLQNAPNQPISAALYESTPTQLASFSINQNPAPMQSGSATGNTNNTDIPALSSNDIAKFSQLFDRTAKGAQTVAGDKAKDIFLKARLPNQTLGEIWALCDRDASGVLDKSEFIMAMYLIQLCMSHHPSMNTPPAVLPTQLWDSIRLEPVVVNQPNRTTPLSANSTGVSSLTRHSTISRLSTGAFSNAASDWSLSFEKKQQFDAIFDSLDKQHAGSLSSAVLVPFFLSSRLNQETLATIWDLADIHNNAEFTKLEFAIAMFLIQKKNAGVELPDVIPNELLQSPALGLYPPNPLPQQQSAPQIAIPSRASKPSLQDMPHQVSAPAVNTQPTVPQVLPQNSNNGSLNDLLALNPSFSSPSPTKAQTVVQNNTNNSFSYDNNNGQATLQQQQPQQPPPLTHSSSGLKKFTPTSNFGQSIIKEEPEEQEQLRESSDTFSAQPPPVPKHASSPVKRTASTTLPQVPNFSVFSMPAGAATSAATGAAVGAAVGAAALGASAFSRSSNNAFKNQDLFADGEASAQLSNATTEMANLSNQVNSLSKQASITNDKKSRATQELKRVTEMKNSIQIKLNNLRSTHDQNVKQTEQLEAQVLQVNKENETLAQQLAVSEANYHAAESKLNELTTDLQESQTKNAELKEQITNLNSMTASLQSQLNEKQQQVKQERSMVDVNSKQLELNQVTVANLQKEIDGLGEKISVYLTKQKELNDYQKTVEEQHAQLQAKYQDLSNKDTDLTDREKQLEERNRQIEEQENLYHQHVSKLQEMFDDLSQRKASFEKADQELKERNIEYANNVRELSERQMNLAMGQLPEDAKDIIAKSASNTDTTTKEATSRGNVHEDTVSKFVETTVENSNLNVNRVKDDEEKTERTESDVFDRDVPTLGSQSDSENANTNNGTQSGNETANPNLTETLSDRFDGDLNEYGIPRSQSLTSSVANNAPQSVRDDVELPETLEERDTINNTANRDNTGNLSHIPGEWEATPATASTDVLSNETTEVIEDGSTTKRANSNEDGESVSSIQESPKISAQPKAKTINEEFPPIQELHIDESDSSSSDDDEFEDTREIPSATVKTLQTPYNAQPTSSLEIHTEQVIKYPAPGTSPSHNEGNSKKASTNSILPVKDEFDDEFAGLEQAAVEEDNGADSESEFENVANAGSMEQFETIDHKDLDDELQMNAFTGTLTSSSNPTIPKPQVQQQSTSDPAQVSNDEWDEIFAGFGNSKAEPTKVATPSIPQQPIPLKNDPIVDASLSKGPIVNRGVATTPKSLAVEELSGMGFTEEEAHNALEKCNWDLEAATNFLLDSA
notes: Ede1, S. cerevisiae, homolog of mammalian Eps15; expressed from its own locus; also called wild-type Ede1; full-length Ede1; source: S. cerevisiae, chromosomally tagged at the endogenous locus, in living cells; not shown: 3myeGFP, C-terminal, kept; 3mCherry, C-terminal, kept
Turning to B3, the “molecular brightness per particle relative to 3myeGFP” value in data set [2] is about 2.5 fold. In addition, the Kd in data set [3] was 127 nM.

B4: ede1Δ591–1381 (myeGFP / mCherry fusions) (domain or fragment, S. cerevisiae, UniProt P34216 1-590, looked up)
chain: MASITFRTPLSSQEQAFYNQKFHQLDTEDLGVVTGEAVRPLFASSGLPGQLLSQVWATVDIDNKGFLNLNEFSAALRMIAQLQNAPNQPISAALYESTPTQLASFSINQNPAPMQSGSATGNTNNTDIPALSSNDIAKFSQLFDRTAKGAQTVAGDKAKDIFLKARLPNQTLGEIWALCDRDASGVLDKSEFIMAMYLIQLCMSHHPSMNTPPAVLPTQLWDSIRLEPVVVNQPNRTTPLSANSTGVSSLTRHSTISRLSTGAFSNAASDWSLSFEKKQQFDAIFDSLDKQHAGSLSSAVLVPFFLSSRLNQETLATIWDLADIHNNAEFTKLEFAIAMFLIQKKNAGVELPDVIPNELLQSPALGLYPPNPLPQQQSAPQIAIPSRASKPSLQDMPHQVSAPAVNTQPTVPQVLPQNSNNGSLNDLLALNPSFSSPSPTKAQTVVQNNTNNSFSYDNNNGQATLQQQQPQQPPPLTHSSSGLKKFTPTSNFGQSIIKEEPEEQEQLRESSDTFSAQPPPVPKHASSPVKRTASTTLPQVPNFSVFSMPAGAATSAATGAAVGAAVGAAALGASAFSRSSNNAFKNQDLF
notes: 1myeGFP fusion for FCS; diploid with one myeGFP and one mCherry allele for FCCS; Each copy carries one tag; also called ede1^Δ591–1391; source: S. cerevisiae, endogenously expressed truncation mutant, in living cells; not shown: myeGFP, C-terminal, kept; mCherry, C-terminal, kept
With B4, the Kd in data set [3] was over 1000 nM.
